Experimental findings from article PMC10359466 are described below.

One data set deals with HsRPA1 DBD-AB (Homo sapiens, UniProt P27694 181-427). The data set can be described thus: MST; 20 mM Tris pH 7.5, 10 mM NaCl, 10 mM MgCl2, 2 mM DTT, 10% glycerol, 0.1 mg/ml BSA, 15 min, room temperature; EMSA 2 nM probe (gel at 4 C), MST 10 nM probe. The settings on record: protein: recombinant; tags: 6xHis (pET28a); label: 5' Cy5 (MST) or 5' IRDye800 (EMSA); single strand.
A further data set deals with TbRPA1 DBD-AB S105T (Trypanosoma brucei, UniProt Q384B5 1-257, S105T). The description is as above. The note with it: protein: recombinant; tags: N-term 6xHis; label: 5' Cy5 (MST) or 5' IRDye800 (EMSA); single strand. A general note: In EMSA bound probe runs differently from free probe, usually more slowly.
In a further data set the target is TcRPA1 DBD-AB T105S (Trypanosoma cruzi, UniProt Q4DXC9 2-257, T105S). Described as above. The settings on record: protein: recombinant; tags: N-term 6xHis; label: 5' Cy5 (MST) or 5' IRDye800 (EMSA); single strand.
A further data set deals with T1, TbRPA1 DBD-AB (Trypanosoma brucei, UniProt Q384B5 1-257).
T1 sequence: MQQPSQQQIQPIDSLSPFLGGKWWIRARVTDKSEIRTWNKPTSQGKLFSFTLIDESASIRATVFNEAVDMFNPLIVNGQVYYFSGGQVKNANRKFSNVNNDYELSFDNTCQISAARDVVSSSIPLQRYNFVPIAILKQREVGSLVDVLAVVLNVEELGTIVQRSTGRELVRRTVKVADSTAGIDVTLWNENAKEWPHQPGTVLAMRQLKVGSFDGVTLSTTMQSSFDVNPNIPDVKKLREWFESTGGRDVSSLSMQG
Described as above. The note with it: protein: recombinant; tags: N-term 6xHis (pET28a); label: 5' Cy5 (MST) or 5' IRDye800 (EMSA); single strand.

The target in a further data set is TbRPA1 DBD-AB W188A (Trypanosoma brucei, UniProt Q384B5 1-257, W188A). Briefly: EMSA, MST; 20 mM Tris pH 7.5, 10 mM NaCl, 10 mM MgCl2, 2 mM DTT, 10% glycerol, 0.1 mg/ml BSA, 15 min, room temperature; EMSA 2 nM probe (gel at 4 C), MST 10 nM probe. The settings on record: protein: recombinant; tags: N-term 6xHis; label: 5' Cy5 (MST) or 5' IRDye800 (EMSA); single strand.

A further data set deals with TbRPA1 DBD-AB F64A (Trypanosoma brucei, UniProt Q384B5 1-257, F64A). Described as above. The note with it: protein: recombinant; tags: N-term 6xHis; label: 5' Cy5 (MST) or 5' IRDye800 (EMSA); single strand.

HsRPA1 DBD-AB, sequence (P27694 181-427): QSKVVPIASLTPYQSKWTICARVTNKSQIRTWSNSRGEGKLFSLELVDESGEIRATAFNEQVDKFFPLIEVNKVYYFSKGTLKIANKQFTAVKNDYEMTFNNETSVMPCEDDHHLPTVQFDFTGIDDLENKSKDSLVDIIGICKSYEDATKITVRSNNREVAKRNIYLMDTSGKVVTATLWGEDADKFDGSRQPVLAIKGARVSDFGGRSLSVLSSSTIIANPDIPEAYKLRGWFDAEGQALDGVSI

For the molecule TTTTTTTTTTTTTTTTTTTTTTTTTTTTTTTT (ssDNA) [dT32], the Kd with HsRPA1 DBD-AB turned out to be 48 ± 37.4 nM; in the data set with TbRPA1 DBD-AB S105T, 21.9 ± 2.7 nM; with TcRPA1 DBD-AB T105S, 52.4 ± 27.9 nM; with TbRPA1 DBD-AB, 24.6 ± 12.4 nM. Moreover, the binding result in the data set with TbRPA1 DBD-AB W188A and with TbRPA1 DBD-AB F64A was “no binding” each time.
As for TTTTTTTTTTTTTTTTTTTT (ssDNA) [dT20], the Kd with TbRPA1 DBD-AB was 30.5 nM.

A word on the Kd: it is the free concentration of one partner at which half of the binding sites on the other are occupied at equilibrium, for simple one-to-one binding.
